Our source for the interaction score values is PMC10397247.

Common to all, as to experiment: two-hybrid library CCmax;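 further: natural log of median RNA to DNA barcode read ratio; higher means stronger binding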
One assay deals with T1, APC9806-AA.
T1 chain: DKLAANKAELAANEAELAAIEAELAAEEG
Particulars: mean of both orientations.

The target in the next assay is T2, APC8401-AA.
T2 chain: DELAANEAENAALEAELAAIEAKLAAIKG
Particulars: mean of both orientations.

The next assay addresses T3, APC4336-AA.
T3 chain: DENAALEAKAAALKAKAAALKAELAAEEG
The following applies: mean of both orientations.

The next assay has as its target T4, APC3323-AA.
T4 chain: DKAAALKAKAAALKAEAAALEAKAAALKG
Particulars: mean of both orientations.

The next assay deals with T5, APC9141-AA.
T5 chain: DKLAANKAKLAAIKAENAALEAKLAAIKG
The following applies: mean of both orientations.

For another assay, the target named is T6, APC2981-AA.
T6 chain: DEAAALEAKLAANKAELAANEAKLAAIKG
Particulars: mean of both orientations.

Another assay concerns the target T7, APC7524-AA.
T7 chain: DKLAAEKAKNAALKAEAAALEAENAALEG
The following applies: mean of both orientations.

A further assay has as its target T8, APC542-AA.
T8 chain: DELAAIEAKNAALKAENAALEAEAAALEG
Particulars: mean of both orientations.

The target in the next assay is T9, APC9291-AA.
T9 chain: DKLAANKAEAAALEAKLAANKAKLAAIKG
Particulars: mean of both orientations.

For the next assay, the target named is T10, APC3265-AA.
T10 chain: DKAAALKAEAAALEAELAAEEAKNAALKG
The following applies: mean of both orientations.

The target of another assay is T11, APC6088-AA.
T11 chain: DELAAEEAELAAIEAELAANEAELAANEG
Particulars: mean of both orientations.

For another assay, the target named is T12, APC9182-AA.
T12 chain: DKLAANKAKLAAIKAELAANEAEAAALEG
The following applies: mean of both orientations.

In another assay the target is T13, APC4100-AA.
T13 chain: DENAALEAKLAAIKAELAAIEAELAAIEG
Particulars: mean of both orientations.

For a further assay, the target named is T14, APC5531-AA.
T14 chain: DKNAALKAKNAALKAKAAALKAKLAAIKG
The following applies: mean of both orientations.

For a further assay, the target named is T15, APC3881-AA.
T15 chain: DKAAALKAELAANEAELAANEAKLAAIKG
Particulars: mean of both orientations.

For another assay, the target named is T16, APC3354-AA.
T16 chain: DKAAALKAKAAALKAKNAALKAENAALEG
The following applies: mean of both orientations.

A further assay addresses T17, APC8516-AA.
T17 chain: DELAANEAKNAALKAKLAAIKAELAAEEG
Particulars: mean of both orientations.

In another assay the target is T18, APC5009-AA.
T18 chain: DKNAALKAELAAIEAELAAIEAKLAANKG
The following applies: mean of both orientations.

The target of the next assay is T19, APC2811-AA.
T19 chain: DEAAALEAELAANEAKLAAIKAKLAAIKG

B1: APC2811-AA (peptide)
chain: DEAAALEAELAANEAKLAAIKAKLAAIKG
Regarding B1, the interaction score with APC9806-AA was -1.74; in the assay with APC8401-AA it was -1.58; with APC4336-AA, -1.61; with APC3323-AA it was -1.68; in the assay with APC9141-AA, -1.29; in the assay with APC2981-AA, -1.57. The interaction score is -1.75 with APC7524-AA; -1.59 with APC542-AA; -1.78 with APC9291-AA; -1.3 in the assay with APC3265-AA; -1.51 with APC6088-AA; -1.35 with APC9182-AA. In addition, the interaction score in the assay with APC4100-AA is 0.341; with APC5531-AA, -1.88; with APC3881-AA, -1.68; in the assay with APC3354-AA, -1.67; in the assay with APC8516-AA, -1.65; with APC5009-AA, -0.812. Also, the interaction score with APC2811-AA was -0.415.
